Measured values: PMC8169611

Molecular target: mouse proIGF2 (insulin-like growth factor 2 pro-hormone) (mouse)
Assay: fluorescence polarisation

Kd: 2980 nM
Substance: mouse proIGF2 (insulin-like growth factor 2 pro-hormone) (natural protein)
